According to the supplement of paper PMC10201428:
± gives the standard deviation of the averaged measurements.

How the values were obtained:
[1] = test system: VchCAST RNA-guided transposition machinery (E. coli BL21(DE3) host, lacZ target); test: relative integration efficiency (T-RL orientation) vs wild-type transposon end (log2 (normalized fold change)); transposon end mutated: right end (5 bp flank + 75 bp right end); higher = more efficient transposition
In short: (§1)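 Barcoded pools of 1549 left-end or 1849 right-end transposon variants were cloned into a pUC57 mini-transposon donor. Each pool was co-transformed with a T7-driven effector plasmid (CRISPR array, tniQ-cas8-cas7-cas6, tnsA-tnsB-tnsC) into E. coli BL21(DE3) and plated with 0.1 mM IPTG at 37°C for 18 h. Input plasmids and genomic integration junctions were PCR-amplified and Illumina-sequenced, with two biological output replicates and four wild-type barcodes as reference. Relative integration efficiency is output/input barcode abundance fold change, normalised to wild-type barcodes and log-transformed.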

[2] = test system: VchCAST RNA-guided transposition machinery (E. coli BL21(DE3) host, lacZ target); test: relative integration efficiency (T-LR orientation) vs wild-type transposon end (log2 (normalized fold change)); transposon end mutated: right end (5 bp flank + 75 bp right end); higher = more efficient transposition
In short: as §1

| Sequence | relative integration efficiency (log2) [1] | relative integration efficiency (log2) [2] |
| --- | --- | --- |
| ACATTTGTTGATACAACCATAAAATGATAATTAATAATTATTCACCCATAAATTGATAATTATCACACCCATAAATTGATATTGCCTCTGATCATAGTCAGACCAACATTGCTACGACCCGTATTCG | -3.976 ± 0.019 | -1.92 ± 0.46 |
| ACATTTGTTGATACAACCATAAAATGATAATTAATAATTATTTACACCCATAAATTGATAATTATCAACAAACGCCCGGTCGCGGTACTCTGATCATAGTCAGACCAACATTGCTACGACCCGTATT | -2.54 ± 0.21 | 0.163 ± 0.01 |
| ACATTTGTTGATACAACCATAAAATGATAATTAATAATTATTTACACCCATAAATTGATAATTATCACACCCATAAATTGATATTGCCTCTGATCATAGTCAGACCAACATTGCTACGACCCGTATT | -2.85 ± 0.13 | -4.57 ± 0.14 |
| ACATTTGTTGATACAACCATAAAATGATAATTAATAATTATTTATAACACCCATAAATTGATAATTATCAACAAACGCCCGGTCGCGGTACTCTGATCATAGTCAGACCAACATTGCTACGACCCGT | -2.63 ± 0.52 | 0.00268 ± 0.47 |
| ACATTTGTTGATACAACCATAAAATGATAATTAATAATTATTTATAACACCCATAAATTGATAATTATCACACCCATAAATTGATATTGCCTCTGATCATAGTCAGACCAACATTGCTACGACCCGT | -3.19 ± 0.2 | -0.494 ± 0.28 |
| ACATTTGTTGATACAACCATAAAATGATAATTAATAATTATTTATAATCACACCCATAAATTGATAATTATCAACAAACGCCCGGTCGCGGTACTCTGATCATAGTCAGACCAACATTGCTACGACC | -2.09 ± 0.28 | 1.25 ± 0.18 |
| ACATTTGTTGATACAACCATAAAATGATAATTAATAATTATTTATAATCACACCCATAAATTGATAATTATCACACCCATAAATTGATATTGCCTCTGATCATAGTCAGACCAACATTGCTACGACC | -3.38 ± 0.096 | -0.35 ± 0.25 |
| ACATTTGTTGATACAACCATAAAATGATAATTAATAATTATTTATAATCACCCATAAATTGATAATTATCAACAAACGCCCGGTCGCGGTACTCTGATCATAGTCAGACCAACATTGCTACGACCCG | -3.08 ± 0.15 | 1.05 ± 0.26 |
| ACATTTGTTGATACAACCATAAAATGATAATTAATAATTATTTATAATCACCCATAAATTGATAATTATCACACCCATAAATTGATATTGCCTCTGATCATAGTCAGACCAACATTGCTACGACCCG | -2.92 ± 0.3 | 0.877 ± 0.18 |
| ACATTTGTTGATACAACCATAAAATGATAATTAATAATTATTTATAATCAGCAACACCCATAAATTGATAATTATCAACAAACGCCCGGTCGCGGTACTCTGATCATAGTCAGACCAACATTGCTAC | -3.18 ± 0.077 | 0.0215 ± 0.36 |
| ACATTTGTTGATACAACCATAAAATGATAATTAATAATTATTTATAATCAGCAACCACCCATAAATTGATAATTATCAACAAACGCCCGGTCGCGGTACTCTGATCATAGTCAGACCAACATTGCTA | -2.29 ± 0.24 | 0.0897 ± 0.14 |
| ACATTTGTTGATACAACCATAAAATGATAATTAATAATTATTTATAATCAGCAACCACCCATAAATTGATAATTATCACACCCATAAATTGATATTGCCTCTGATCATAGTCAGACCAACATTGCTA | -3.26 ± 0.25 | -1.81 ± 0.066 |
| ACATTTGTTGATACAACCATAAAATGATAATTAATAATTATTTATAATCAGCAACTCACCCATAAATTGATAATTATCAACAAACGCCCGGTCGCGGTACTCTGATCATAGTCAGACCAACATTGCT | -2.25 ± 0.75 | -0.174 ± 0.43 |
| ACATTTGTTGATACAACCATAAAATGATAATTAATAATTATTTATAATCAGCAACTCACCCATAAATTGATAATTATCACACCCATAAATTGATATTGCCTCTGATCATAGTCAGACCAACATTGCT | -3.48 ± 0.49 | -2.22 ± 1.2 |
| ACATTTGTTGATACAACCATAAAATGATAATTAATAATTATTTATAATCAGCAACTTAACACCCATAAATTGATAATTATCAACAAACGCCCGGTCGCGGTACTCTGATCATAGTCAGACCAACATT | -3.404 ± 0.015 | -0.0617 ± 0.066 |
| ACATTTGTTGATACAACCATAAAATGATAATTAATAATTATTTATAATCAGCAACTTAACACCCATAAATTGATAATTATCACACCCATAAATTGATATTGCCTCTGATCATAGTCAGACCAACATT | -3.62 ± 0.28 | -0.417 ± 0.9 |
| ACATTTGTTGATACAACCATAAAATGATAATTAATAATTATTTATAATCAGCAACTTAACCACAAAACACCCATAAATTGATAATTAACAAAACACCCATAAATTGATATTGCCTCTGATCATAGTC | -5.1 ± 0.59 | < -10 |
| ACATTTGTTGATACAACCATAAAATGATAATTAATAATTATTTATAATCAGCAACTTAACCACAAAACACCCATAAATTGATAATTAACAAAAGTGGGTATTTAACTATAACGTGTGAATCGAGTAT | -3.472 ± 0.019 | -1.88 ± 0.39 |

| Sequence | relative integration efficiency (log2) [1] | relative integration efficiency (log2) [2] |
| --- | --- | --- |
| ACATTTGTTGATACAACCATAAAATGATAATTAATAATTATTTATAATCAGCAACTTAACCACAAAACACCCATAAATTGATAATTAACAACACCCATAAATTGATATTGCCTCTGATCATAGTCAG | -4.56 ± 0.76 | -1.12 ± 0.49 |
| ACATTTGTTGATACAACCATAAAATGATAATTAATAATTATTTATAATCAGCAACTTAACCACAAAACACCCATAAATTGATAATTATCAACAAACGCCCGGTCGCGGTACTCTGATCATAGTCAGA | -4.43 ± 0.39 | -2.48 ± 1.9 |
| ACATTTGTTGATACAACCATAAAATGATAATTAATAATTATTTATAATCAGCAACTTAACCACAAACACCCATAAATTGATAATTATCAACAAACGCCCGGTCGCGGTACTCTGATCATAGTCAGAC | -3.5 ± 0.52 | -0.33 ± 0.047 |
| ACATTTGTTGATACAACCATAAAATGATAATTAATAATTATTTATAATCAGCAACTTAACCACAAACACCCATAAATTGATAATTATCACACCCATAAATTGATATTGCCTCTGATCATAGTCAGAC | -5.71 ± 1.2 | -4.03 ± 0.67 |
| ACATTTGTTGATACAACCATAAAATGATAATTAATAATTATTTATAATCAGCAACTTAACCACAACACCCATAAATTGATAATTATCAACAAACGCCCGGTCGCGGTACTCTGATCATAGTCAGACC | -3.33 ± 0.27 | -0.0981 ± 0.042 |
| ACATTTGTTGATACAACCATAAAATGATAATTAATAATTATTTATAATCAGCAACTTAACCACAACACCCATAAATTGATAATTATCACACCCATAAATTGATATTGCCTCTGATCATAGTCAGACC | -3.94 ± 1.1 | -2.74 ± 0.53 |
| ACATTTGTTGATACAACCATAAAATGATAATTAATAATTATTTATAATCAGCAACTTAACCACACACCCATAAATTGATAATTATCAACAAACGCCCGGTCGCGGTACTCTGATCATAGTCAGACCA | -2.65 ± 0.4 | 0.76 ± 0.68 |
| ACATTTGTTGATACAACCATAAAATGATAATTAATAATTATTTATAATCAGCAACTTAACCACACACCCATAAATTGATAATTATCACACCCATAAATTGATATTGCCTCTGATCATAGTCAGACCA | -3.09 ± 0.16 | -0.603 ± 0.78 |
| ACATTTGTTGATACAACCATAAAATGATAATTAATAATTATTTATAATCAGCAACTTAACCACACCCATAAATTGATAATTATCAACAAACGCCCGGTCGCGGTACTCTGATCATAGTCAGACCAAC | -2.81 ± 0.91 | 1.01 ± 0.042 |
| ACATTTGTTGATACAACCATAAAATGATAATTAATAATTATTTATAATCAGCAACTTAACCACACCCATAAATTGATAATTATCACACCCATAAATTGATATTGCCTCTGATCATAGTCAGACCAAC | -4.19 ± 0.29 | -0.704 ± 0.18 |
| ACATTTGTTGATACAACCATAAAATGATAATTAATAATTATTTATAATCAGCAACTTAACCACCACCCATAAATTGATAATTATCAACAAACGCCCGGTCGCGGTACTCTGATCATAGTCAGACCAA | -3.21 ± 0.38 | 0.423 ± 1.1 |
| ACATTTGTTGATACAACCATAAAATGATAATTAATAATTATTTATAATCAGCAACTTAACCACCACCCATAAATTGATAATTATCACACCCATAAATTGATATTGCCTCTGATCATAGTCAGACCAA | -3.5 ± 0.74 | -0.482 ± 0.91 |
| ACATTTGTTGATACAACCATAAAATGATAATTAATAATTATTTATAATCAGCAACTTAACCACCCATAAATTGATAATTATCAACAAACGCCCGGTCGCGGTACTCTGATCATAGTCAGACCAACAT | -3.11 ± 0.29 | 0.501 ± 0.39 |
| ACATTTGTTGATACAACCATAAAATGATAATTAATAATTATTTATAATCAGCAACTTAACCACCCATAAATTGATAATTATCACACCCATAAATTGATATTGCCTCTGATCATAGTCAGACCAACAT | -3.17 ± 0.073 | -1.2 ± 2.8 |
| ACATTTGTTGATACAACCATAAAATGATAATTAATAATTATTTATAATCAGCAACTTAACCCACCCATAAATTGATAATTATCAACAAACGCCCGGTCGCGGTACTCTGATCATAGTCAGACCAACA | -2.76 ± 0.67 | 0.743 ± 0.49 |
| ACATTTGTTGATACAACCATAAAATGATAATTAATAATTATTTATAATCAGCAACTTAACCCACCCATAAATTGATAATTATCACACCCATAAATTGATATTGCCTCTGATCATAGTCAGACCAACA | -3.06 ± 0.43 | 0.044 ± 0.09 |
| ACATTTGTTGATACAACCATAAAATGATAATTAATAATTATTTATAATCAGCAACTTACACCCATAAATTGATAATTATCAACAAACGCCCGGTCGCGGTACTCTGATCATAGTCAGACCAACATTG | -4.47 ± 1 | -1.91 ± 0.28 |
